Molecular target: Aggrecan
Assay: competition ELISA (CAP) on Aggrecan; competitor not stated

B1: C010100626 (bispecific antibody, part only; not given: albumin binder and linker, not shown: small tags and cut ends)
chain, part: EVQLVESGGGLVQPGGSLRLSCAASGSTFIINVVRWYRRAPGKQRELVATISSGGNANYVDSVRGRFTISRDNSKNTVYLQMNSLRPEDTAVYYCNVPTTHYGGVYYGPYWGQGTLVTVSSEVQLVESGGGLVQPGGSLRLSCAASGSTFIINVVRWYRRAPGKQRELVATISSGGNANYVDSVRGRFTISRDNSKNTVYLQMNSLRPEDTAVYYCNVPTTHYGGVYYGPYWGQGTLVTVSS
How did the IC50 turn out when B1 was run?
Its IC50 is 0.87 nM.

— patent US12129308
